From USRE42211, “Relating to binding proteins for recognition of DNA” (Gendaq, Limited)

Target: anti-BCR-ABL three-finger peptide 1A-2A-3B (synthetic)
Assay: phage ELISA after capture on streptavidin beads; +/-0.4e-7 M; Zn, PBS, 20 C
Conditions: source form inferred; label: 5'-biotin

Chain of anti-BCR-ABL three-finger peptide 1A-2A-3B (synthetic) (chain, as listed by the source): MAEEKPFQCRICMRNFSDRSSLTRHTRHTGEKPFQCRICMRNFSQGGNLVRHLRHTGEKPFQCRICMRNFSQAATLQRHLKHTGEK

B1: p190 BCR-ABL cDNA fusion site oligo (dsDNA)
DNA 1: GAGACGCAGAAGCCCTTC
DNA 2: GAAGGGCTTCTGCGTCTC
- Kd: 620 nM
